# Reference: article doi:10.1101/2025.03.30.646023 (bioRxiv, 2025)
# B1: PRO-37587 (antibody, V domains shown)
# VH: QVQLVQSGAEVKKPGSSVKVSCKASGDTSDTYTISWVRQAPGQGLEWMGRIILLSGYANYAQKIQGRVTITADKSTSTAYMELTSLRSDDTAVYYCARGFNGDYYGWGDDDAFDFWGQGTLVTVYS
# VL: QTVLTQPPSVSGAPGQRVTISCTGSSSNIGAGYRVHWYQQLPGTAPKLLIAGRSNRPSGVPDRFSGSKSGTSASLAITGLQAEDEADYYCQSYDSSLFDPHWVFGGGTKLTVL
# Target: SARS-CoV-2 (ancestral strain) RBD protein (SARS-CoV-2 ancestral strain, UniProt P0DTC2)
# Assay: SPR
binder,measurement,value
B1,binding result,binds
